According to patent US20240207380A1, “NOVEL PEPTIDE TARGETING DENDRITIC CELLS, AND COMPOSITION FOR TREATING CANCER COMPRISING SAME” (INDUSTRY FOUNDATION OF CHONNAM NATIONAL UNIVERSITY, priority 2021, published 2024):
Entries after “also recorded” stand apart in the source; their conditions may differ.

Legend:
[1] = In vivo distribution of FNR675-labeled peptides in draining inguinal lymph nodes; set-up: species or system  mice; details: subcutaneous
Protocol: Next, the conjugated proteins were quantitatively determined from the calibration curve of the FNR675-NHS ester using a UV-Vis spectrophotometer (UV-2700, Shimadzu, Japan).
The fluorescence signals in the draining lymph nodes were determined and are depicted in FIG. 16. In addition, six hours after injection, the draining inguinal LN (iLN) cells were prepared, and then in vivo DC-targeting was determined by FACS analysis gating upon CD11c^+ cell population, and the results are depicted in FIG. 17.

BMDCs or RAW264.7 cells = experiment: Intracellular distribution of EF and DEF by confocal microscopy; format: cell-based; details: 20 μg/ml, 2 hours
Protocol: After incubation, the cells were harvested, washed, fixed with 100% methanol for 15 minutes at room temperature, and stained with anti-mouse CD11c^+ APC-conjugated antibody and DAPI, a nuclear stain, for 1 hour at room temperature. After two washes with cold 1×PBS, the intercellular distributions of the peptides within the dendritic cells (CD11c^+) were determined by confocal microscopy (LSM800).

CD8^+ T cells = experiment: Peptide-mediated CD8+ T cell activation (CFSE dilution, coculture with pulsed BMDCs); format: cell-based, mice
Protocol: CD8^+ splenocytes from TC-1 tumor-bearing mice were prepared using the MagniSort™ Mouse CD8 T Cell Enrichment kit (Invitrogen, 8804-6822) according to the manufacturer's instructions, and were labeled with 5 μM CFSE. EF- or DEF-pulsed BMDCs were cocultured with CFSE-stained CD8^+ cells at a ratio of 1:5 (BMDC:CD8^+ T cells) for 3 days in RPMI 1640 medium supplemented with 10% fetal bovine serum (HyClone, Logan, UT), 1% penicillin/streptomycin (Life Technologies, Grand Island, NY), and 50 μM 2-mercaptoethanol (Sigma, 516732). CD8^+ T cell proliferation was assessed by CFSE dilution using flow cytometry.

TC-1 cells [2] = experiment: Antitumor effect in NLRC4-knockout TC-1 tumor-bearing mice; format: in vivo; details: 20 μg
Description: (§1) Wild-type (WT), TLR5-knockout (TLR5^−/−) and NLRC4-knockout (NLRC4^−/−) mouse groups were implanted with TC-1 cells in the right mid-flank. […] The results are depicted in FIG. 25.

[3] = tested on: Bone marrow-derived dendritic cells (BMDCs); experiment: Antigen-presenting cell activation (CD80 and CD86 on BMDC surface); format: cell-based, C57BL/6 mice; details: 0.5 μg/ml, 24 hours
Description: The cells were stained on ice with fluorophore-labeled antibodies before flow cytometry analysis.

TLR5 = molecular target: T1, TLR5 (Homo sapiens, UniProt O60602); format: cell-based; details: HEK-Blue hTLR5 cells
T1 construct: host or cells: HEK-Blue hTLR5 cells (HEK293-derived reporter line, own knowledge: stably transfected with the human TLR5 gene and an NF-kB-inducible SEAP reporter)
Protocol: Also, the EC50 was calculated using triplicate OD 620 nm values for each protein concentration over a wide range of protein concentrations (0.0375 nM-19.29 nM at the AAT Bioquest website).

[4] = tested on: CTL epitope-specific tetramer+ CD8+ cells; experiment: Antigen-specific T cell immune response (E7 tetramer+ CD8+ cells in peripheral blood); format: in vivo, mice
Protocol: The peptides of the present disclosure as in Example 5 were administered to mice with or without tumors and peripheral blood was collected therefrom. After removal of RBC by RBC lysis buffer, the blood was stained with the tetramer antibody (PE-conjugated HPV16 H-2Db-[…], TB-5008-1, MBL) and CD8 antibody and analyzed by flow cytometry.

[5] = tested on: Bone marrow-derived dendritic cells (BMDCs); experiment: Cellular uptake of EF and DEF in BMDCs (flow cytometry); format: cell-based, C57BL/6 mice; details: 2 hours, anti-FlaB staining, FACS gated on CD11c+
Protocol: Cells treated with PBS alone were used as a negative control. After incubation, the cells were washed twice with cold 1×PBS containing 3% FBS and then stained with anti-mouse CD11c^+ antibody (eBioscience, Clone: N418, 25-0114-82) for 1 hour at 4° C. and fixed with 4% paraformaldehyde (T&I, BPP-9004) for 10 minutes at room temperature. The cells were permeabilized using a permeabilization kit according to the manufacturer's instructions (Invitrogen, 00-8333-56) and stained with anti-FlaB antibodies, followed by FACS analysis by gating upon the CD11c^+ population. The results are depicted in FIG. 14.

TC-1 cells [6] = experiment: Antitumor effect in TLR5-knockout TC-1 tumor-bearing mice; format: in vivo
Description: as §1

[7] = tested on: IFN-γ-producing cells of spleen (SPL) or tumor-draining lymph nodes (TDLNs); experiment: CTL peptide-specific immune response (IFN-γ ELISpot); format: in vivo, mice
Protocol: Single-cell suspensions from the spleen (SPL) or tumor-draining lymph nodes (TDLNs) were prepared by administering the peptides of the present disclosure to mice with or without tumors in the same manner as in Example 5. A total of 1×10^6 SPL or 2.5×10^5 TDLNs cells were seeded into 96-well Filtration ELISpot plates (Merck, HAMAS4510) and stimulated with 1 μg/ml E7 CTL peptide (amino acids 49-57: […]). Cells stimulated with 10 ng/ml concanavalin A were used as a positive control. After two days of culture of SPL cells or five days of culture of TDLN cells, IFN-γ-producing cells were detected by using the mouse IFN-γ ELISpot Set (BD Bioscience, 551083) according to the manufacturer's instructions. IFN-γ-producing cells were analyzed using a CTL-ImmunoSpot Analyzer and ImmunoSpot Professional Software version 5.0 (Cellular Technology, Shaker Heights, OH, USA).

TC-1 cells [8] = experiment: Antitumor efficacy of peptides in TC-1 tumor-bearing mice (survival, tumor volume); format: in vivo, C57BL/6 mice
Protocol: Female SPF C57BL/6 mice 7 to 8 weeks old were purchased from ORIENT (Seongnam-si, Gyeonggi-do, Korea). TC-1 cells were cultured in RPMI 1640 medium supplemented with 10% heat-inactivated FIBS, 100 units/ml penicillin, and 100 μg/ml streptomycin at 37° C. under 5% CO2. Tumors were established in mice by subcutaneous injection of 5×10^4 TC-1 cells in 100 μl of PBS into the right mid-flank of each mouse. […] Tumor growth was monitored every three days. The tumor volume was calculated with formula V=(tumor length)×(tumor width)×(tumor height)/2.
The tumor-bearing mice were administered the all-in-one vaccine of the present disclosure as in Example 5 and measured for survival rate and tumor volume in the same manner. For a positive control, a group of mice was immunized with HPV16 E7 CTL peptide (amino acid 49-57: […]), known as a cytotoxic T lymphocyte (CTL)-inducing peptide.

[9] = versus E7 Pep+F positive control

T1 sequence (O60602 21-858): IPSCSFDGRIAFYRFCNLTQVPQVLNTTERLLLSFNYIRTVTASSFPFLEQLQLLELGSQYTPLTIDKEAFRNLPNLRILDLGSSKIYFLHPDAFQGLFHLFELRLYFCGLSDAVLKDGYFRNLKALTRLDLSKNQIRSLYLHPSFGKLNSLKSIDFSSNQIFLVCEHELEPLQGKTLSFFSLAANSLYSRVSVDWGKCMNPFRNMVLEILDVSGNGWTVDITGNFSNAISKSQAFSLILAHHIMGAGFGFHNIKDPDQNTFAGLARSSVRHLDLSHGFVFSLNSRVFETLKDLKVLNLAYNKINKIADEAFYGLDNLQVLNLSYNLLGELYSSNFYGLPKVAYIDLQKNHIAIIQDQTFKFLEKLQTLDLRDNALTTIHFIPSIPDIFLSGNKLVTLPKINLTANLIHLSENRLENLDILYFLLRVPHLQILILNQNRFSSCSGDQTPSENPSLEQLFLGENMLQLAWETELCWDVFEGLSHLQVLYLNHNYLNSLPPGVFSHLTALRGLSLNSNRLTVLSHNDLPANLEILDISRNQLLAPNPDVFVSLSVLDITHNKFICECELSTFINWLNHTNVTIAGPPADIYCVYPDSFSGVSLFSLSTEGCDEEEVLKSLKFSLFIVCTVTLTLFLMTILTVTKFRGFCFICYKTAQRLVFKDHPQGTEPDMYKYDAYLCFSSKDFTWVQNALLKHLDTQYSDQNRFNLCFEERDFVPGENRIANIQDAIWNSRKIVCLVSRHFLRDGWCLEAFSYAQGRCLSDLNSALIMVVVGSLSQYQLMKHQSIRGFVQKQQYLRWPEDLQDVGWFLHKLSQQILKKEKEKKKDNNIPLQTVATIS

B1: DEF (protein)
chain: MRFFCLGPLGFTKVDIDGPAGQAEPDRAHYNIVTFCCKCDSTLRLCVQSTHVDIRTLEDLLMGTLGIVCPICSQKPEFIDGPAGQAEPDRAHYNIVTFCCKCDSTLRLCVQSTHVDIRTLEDLLMGTLGIVCPICSQKPVDIDGPAGQAEPDRAHYNIVTFCCKCDSTLRLCVQSTHVDIRTLEDLLMGTLGIVCPICSQKPVDIDGPAGQAEPDRAHYNIVTFCCKCDSTLRLCVQSTHVDIRTLEDLLMGTLGIVCPICSQKPKLMAVNVNTNVAAMTAQRYLNNANSAQQTSMERLSSGFKINSAKDDAAGLQISNRLNVQSRGLDVAVRNANDGISIAQTAEGAMNETTNILQRMRDLSLQSANGSNSKSERVAIQEEVTALNDELNRIAETTSFGGNKLLNGTYGTKAMQIGADNGEAVMLSLKDMRSDNVMMGGVSYQAEEGKDKNWNVAAGDNDLTIALTDSFGNEQEIEINAKAGDDIEELATYINGQTDLVKASVGEGGKLQIFAGNNKVQGEIAFSGSLAGELGLGEGKNVTVDTIDVTTVQGAQESVAIVDAALKYVDSHRAELGAFQNRFNHAISNLDNINENVNASKSRIKDTDFAKETTQLTKTQILSQASSSILAQAKQAPNSALSLLGLEHHHHHH
modifications: DCpep6::4xE7deltaNLS::FlaB (DEF)
[1]
  time to removal from the draining lymph nodes post administration: ≤ 24 h
BMDCs or RAW264.7 cells
  intracellular location (FIG. 15): located in the cytoplasm of CD11c^+ cells
CD8^+ T cells; NLRC4-knockout (NLRC4^−/−) mice, 1 μg/mL
  division index of CD8+ T cells (FIG. 26): rather decreased
CD8^+ T cells; wild-type (WT) mice BMDCs pulsed with 1 μg/mL for 24 hours, coculture 1:5 for 3 days
  division index of CD8+ T cells (FIG. 26): significantly enhanced
TC-1 cells [2]
  effects on tumor volume and survival (FIG. 25): abolished
[3]
  expression of CD80 and CD86 on BMDC surface (FIG. 20): significantly enhanced expression
TLR5
  NF-κB activity levels (FIG. 13): increased the activity in dose-dependent manners
[4]; mice without tumors
  tetramer-positive cells in peripheral blood (FIG. 22): remarkably high levels
[4]; tumor-bearing mice, compared with PBS, E and EF groups
  CTL epitope-specific tetramer-positive CD8+ cells in peripheral blood (FIG. 21): significantly higher levels
[5]
  cellular uptake in bone marrow-derived dendritic cells (FIG. 14): concentration-dependent cellular uptake
TC-1 cells [6]; 20 μg, TLR5^−/− versus wild-type
  survival and tumor volume effect in TLR5^−/− mice relative to wild-type mice (FIG. 25): significantly lower levels
TC-1 cells [6]; TLR5^−/− mice, 20 μg subcutaneous peritumoral three times, compared to PBS group
  survival (FIG. 25): significantly longer survival
TC-1 cells [6]; TLR5^−/− mice, 20 μg, compared to PBS group
  tumor volume (FIG. 25): decreased
[7]; mice without tumors
  IFN-γ production (FIG. 24): significantly higher level
[7]; tumor-bearing mice, compared to PBS, E and EF
  IFN-γ production level in SPL and TDLNs (FIG. 23): significantly enhanced
TC-1 cells [8]; among all administered groups
  tumor volume (FIG. 19): smallest
TC-1 cells [8]; compared with E7ΔNLS (E)-administered group
  survival (FIG. 18): significantly longer survival; also recorded: longest survival
TC-1 cells [8]; [9]
  survival compared with HPV16 E7 CTL peptide+FlaB (E7 Pep+F) group (FIG. 18): notably longer survival
  tumor volume compared with HPV16 E7 CTL peptide+FlaB (E7 Pep+F) group (FIG. 19): remarkably much smaller
